From patent US20220265772A1, “USES OF DAN FAMILY BMP ANTAGONISTS FOR INHIBITING OCULAR NEOVASCULARIZATION AND TREATING OCULAR CONDITIONS” (9636137 Canada Inc., priority 2019, published 2022)

System: choroidal neovascularization
Experiment: Laser-induced choroidal neovascularization (CNV)
Type: in vivo, mouse
Experimental: Three-month-old C57BL/6J mice were anesthetised with a ketamine/xylazine mix prior to applying a photocoagulating laser (400 mW intensity, 0.05 s exposure time). Four spots were burned around the optical nerve. Mice received 100 ng of recombinant human DAND5 intravitreally or similar volume of vehicle in the contralateral eye. Eyes were enucleated after 14 days and processed for immunostaining.
Ocular globes were initially fixed for 15 min in 4% paraformaldehyde (PFA). Retinas or choroids were collected after eyes dissection in PBS and blocked 1 h in PBS 3% BSA 0.1% Triton X-100™. Fixation was prolonged in 1% PFA overnight for choroid extraction or eyes sectioning. […] Quantitative analysis of tufts, vaso-obliterated or vessel areas were performed using imageJ/Swift_NV™ as previously described (1). Neovascular tuft formation was quantified by comparing the number of pixels in the affected areas with the total number of pixels in the retina. The avascular area in the retina was measured in the same way using an anti-DAND5/COCO polyclonal goat IgG antibody (AF3047, R&D systems).
The effects of DAND5 on choroidal neovascularization (CNV) were also evaluated by subjecting mice to laser-induced CNV, a model which recapitulates the CNV occurring in wet AMD patients. […]

B1: DAND5: human recombinant DAND5/COCO biologically active fragment produced in E. coli, predicted 18.2 kDa monomer, R&D systems 3047-CC-050 (protein)
chain: MRPEPQSPRPQSWAAANQTWALGPGALPPLVPASALGSWKAFLGLQKARQLGMGRLQRGQDEVAAVTLPLNPQEVIQGMCKAVPFVQVFSRPGCSAIRLRNHLCFGHCSSLYIPGSDPTPLVLCNSCMPARKRWAPVVLWCLTGSSASRRRVKISTMLIEGCHCSPKA
OIR and laser-induced CNV together
  inhibitory effect on retinal and choroidal neovascularization compared with Flt1Fc: significantly better than VEGF inhibition with Flt1Fc
Laser impact, intravitreal delivery, 14 days, compared with controls
  area of CNV: significant decrease in the area of CNV
